We go through two molecules from US20240342704A1 (BERKELEY LIGHTS, published 2024).

The test addresses T1, HLA-A*02:01 MHC Class I complex (biotinylated) (human, biotinylated).
T1 construct: The MHC molecule as the partner of the peptide in the groove; It was captured on streptavidin DynaBeads; also called pHLA; pMHC
In words: pMHC on streptavidin beads held in T cell culture media at 37 C for 0-48 h; W6/32-APC MFI by flow cytometry fitted to an exponential decay. The protocol: To wells of a 96-well, round-bottom microplate, 0.2 mL of T Cell Culture Media (Advanced RPMI, 10% Human AB Serum, 1 mM GlutaMax) was added and equilibrated to 37° C. in a standard tissue culture incubator. To three wells each, four microliters of each pHLA-beads was added to a well. The process of adding beads to wells was repeated at time intervals resulting in beads that were held in the media at 37° C. for 48, 32, 24, 16, 8, 4, 2, and 1 hr. The plate was centrifuged at 400 g for 5 minutes, and the media removed by flicking the plate. A sample of beads held at 4° C. for the duration of the time course was then added to three wells to create the 0 hr time point.
An APC-conjugated, conformationally sensitive antibody which only recognizes pMHC molecules in the folded, complex conformation (Clone W6/32, Biolegend) was then added to each well. The antibody was diluted 50-fold from the manufacturer stock into Assay Buffer, and 0.05 mL of antibody mixture was added to each well. […]
Antibody binding to the beads was then detected on a FACSCelesta with High-Throughput Sampler (BD Biosciences). […] Approximately 25,000 bead events were recorded for each sample. The Median Fluorescence Intensity (MFI) in the APC channel for the pHLA-beads in each sample was then recorded. […] The half-lives for the pHLA complexes were then calculated from the fitted decay constant.
(In general: A flow cytometer gives signals particle by particle.)

B1: TCL1-derived peptide antigen SLLPIMWQLY (SEQ ID NO: 6) (peptide)
peptide: SLLPIMWQLY
notes: Synthetic 10-mer peptide; also called Non-Immunogenic TCL1-derived peptide
With B1, the half-life is about 0.5 h.

B2: SLC45A2-derived peptide antigen SLYSYFQKV (SEQ ID NO: 5) (peptide)
peptide: SLYSYFQKV
notes: Synthetic 9-mer peptide, dissolved in DMSO and diluted in PBS for the exchange reaction; also called Immunogenic SLC45A2-derived peptide; SLC45A2 antigen
B2 gave a half-life of about 17 h.

One may read the half-life as the time needed for the level to fall by half in the phase considered.
